Results reported in patent US20250084174A1.
Changes are numbered by the printed parent chain.

B1: AB243LO0326 (antibody, V domains shown)
VH: QVQLVQSGAEVKKPGASVKVSCKASGYTFTSYWMHWVRQAPGQGLEWIGVIYPGNSDTRYNQKFKGRVTITRDTSASTAYMELSSLRSEDTAVYYCTRDYYSNYVYYYAMDYWGQGTTVTVSS
VL: DIVMTQTPLSLPVTPGEPASISCRSSQSLVHPNRNTYLHWYLQKPGQSPQLLIYKVSNRFSGVPDRFSGSGSGTDFTLKISRVEAEDVGVYYCSQSTHVPWTFGQGTKLEIK
modifications: afucosylated form; in the LigandTracer assay DyLight 650 Maleimide on an engineered cysteine residue in the CH2 region
B2: humanised AB1020243 afuc (AB1020243-fgl) (antibody, V domains shown)
VH: B1 VH
VL: B1 VL with P32S, R34G
modifications: afucosylated form; in the LigandTracer assay DyLight 650 Maleimide on an engineered cysteine residue in the CH2 region
B3: AB243LO0331 (antibody, IgG1, V domains shown)
VH: B1 VH
VL: B1 VL with P32S, R34T
modifications: here or on the partner: afucosylated form

Key:
[1] = molecular target: CCR9 (species and isoform not stated) (UniProt P51686); experiment: cell-based or functional assay
[2] = molecular target: human CCR9 (isoform not given) (human), P51686
human CCR9 (isoform not given) (human), P51686, sequence (P51686 whole entry, canonical isoform): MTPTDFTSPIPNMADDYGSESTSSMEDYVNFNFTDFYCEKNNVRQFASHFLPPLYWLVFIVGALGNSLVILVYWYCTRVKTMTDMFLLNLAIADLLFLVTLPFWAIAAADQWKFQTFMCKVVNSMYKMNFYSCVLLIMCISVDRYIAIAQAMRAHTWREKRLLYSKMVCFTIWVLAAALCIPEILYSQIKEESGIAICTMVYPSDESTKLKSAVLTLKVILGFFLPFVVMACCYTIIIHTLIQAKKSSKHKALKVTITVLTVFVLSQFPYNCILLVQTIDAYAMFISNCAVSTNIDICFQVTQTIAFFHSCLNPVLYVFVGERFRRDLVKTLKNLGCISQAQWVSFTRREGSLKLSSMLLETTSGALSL

[3] = molecular target: human CCR9 (isoform not given) (human), P51686; experiment: cell-based or functional assay
[4] = molecular target: CCR9 (species and isoform not stated) (UniProt P51686)
[5] = molecular target: CCR9 (species and isoform not stated) (UniProt P51686); experiment: LigandTracer on CCR9-expressing CHO K1 cells, DyLight 650 labelled IgG, bivalent (1:2) fit, ~22 °C

Binder	prevention of CCL25 induced CCR9 internalisation (FACS) [1]	IC50 (read off the curve), HTRF IP-One, MOLT 4 cells, 50 nM CCL25 [2]	EC50, killing of PBMC [3]	EC50, killing of human CD4+CCR9+ PBMC [3]	EC50, luminescence signal (CPS) against Log M; potency curve as in the NK cell activation reporter assay; the target cell line is not printed on the sheet [4]	Potency, NK cell activation (NK-92 CD16a NFAT luciferase reporter) [3]	koff [5]
B1	2 nM	0.6 nM	0.004 nM	0.004 to 0.005 nM	–	–	–
B2	–	–	–	–	7.3e-09 M	0.8 nM	4.3e-05 s⁻¹
B3	–	0.6 nM	–	–	–	–	–
